These results are taken from patent US20240270866A1 (Alector, published 2024).

Assay [1] has as its target T1, mouse SIRPA overexpressed on CHO cells (mouse, UniProt P97797 32-513).
T1 construct: also called CHO-muSIRPA
T1 sequence: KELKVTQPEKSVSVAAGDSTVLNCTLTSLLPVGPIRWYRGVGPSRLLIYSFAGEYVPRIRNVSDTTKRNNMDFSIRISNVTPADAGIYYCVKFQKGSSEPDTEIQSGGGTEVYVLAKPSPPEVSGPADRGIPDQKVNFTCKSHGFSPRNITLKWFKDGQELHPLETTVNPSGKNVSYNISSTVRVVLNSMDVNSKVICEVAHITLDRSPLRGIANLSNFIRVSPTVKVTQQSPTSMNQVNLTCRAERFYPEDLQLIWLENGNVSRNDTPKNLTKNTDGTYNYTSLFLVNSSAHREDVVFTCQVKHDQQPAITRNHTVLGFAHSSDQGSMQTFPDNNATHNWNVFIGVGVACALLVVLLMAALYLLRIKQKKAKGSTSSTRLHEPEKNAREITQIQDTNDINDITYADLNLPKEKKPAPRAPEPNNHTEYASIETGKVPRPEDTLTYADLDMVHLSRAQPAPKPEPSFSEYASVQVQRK
The assay is described as follows: flow, CHO-muSIRPA.

Assay [2] deals with T1, mouse SIRPA overexpressed on CHO cells. The assay is described as follows: flow, CHO-muSIRPA. The source holds these as a separate data set.
In assay [3] the target is T2, human SIRPA overexpressed on CHO cells (human, UniProt P78324 31-504).
T2 construct: also called CHO-huSIRPA
The assay is described as follows: flow, CHO-huSIRPA.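 Also: Anti-SIRPA antibodies applied at 1 µg/mL for 1 h on ice, binding read by flow cytometry using a PE-labelled secondary antibody.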

The next assay concerns the target T3, Mouse SIRPA D1 Fc (mouse, UniProt P97797 32-150, limits assumed).
T3 sequence: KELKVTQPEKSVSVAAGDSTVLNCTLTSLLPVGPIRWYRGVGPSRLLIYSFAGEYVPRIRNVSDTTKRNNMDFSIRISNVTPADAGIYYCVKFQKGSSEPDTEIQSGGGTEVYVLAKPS
The assay is described as follows: ForteBio IgG avid.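 Also: antibody IgG captured on AHQ biosensors, then 100 nM Fc-fused SIRP antigen applied for 3 min, followed by 3 min buffer dissociation, kinetics fitted to a 1:1 model.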

The target in another assay is Human SIRPb D1 Fc (human, UniProt O00241 30-148, limits assumed). The assay is described as follows: ForteBio IgG avid.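 Also: antibody IgG captured on AHQ biosensors, then 100 nM Fc-fused SIRP antigen applied for 3 min, followed by 3 min buffer dissociation, kinetics fitted to a 1:1 model.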
Chain of Human SIRPb D1 Fc (O00241 30-148 limits assumed): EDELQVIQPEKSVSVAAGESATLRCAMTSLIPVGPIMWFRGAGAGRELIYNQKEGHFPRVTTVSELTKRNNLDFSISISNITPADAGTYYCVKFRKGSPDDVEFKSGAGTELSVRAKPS
The next assay deals with T4, Human SIRPA D1 Fc (human, UniProt P78324 32-137).
T4 construct: not shown: human IgG1 Fc
The assay is described as follows: ForteBio IgG avid.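 Also: antibody IgG captured on AHQ biosensors, then 100 nM Fc-fused SIRP antigen applied for 3 min, followed by 3 min buffer dissociation, kinetics fitted to a 1:1 model.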

Numbering of substitutions follows the chain as printed.

B1: SA-38 (antibody, V domains shown)
VH: QVQLQESGPGLVKPSQTLSLTCTVSGGSISSGGYYWSWIRQHPGKGLEWIGSIYYSGSTYYNPSLKSRVTISVDTSKNQFSLKLSSVTAADTAVYYCAREGAYSLYVNWFDPWGQGTLVTVSS
VL: EIVMTQSPATLSVSPGERATLSCRASQSVSSSLAWYQQKPGQAPRLLIFGASTRATGIPARFSGSGSGTEFTLTISSLQSEDFAVYYCQQYDNYPPITFGGGTKVEIK
notes: IgG
For B1, the “relative MFI” value was determined as 0.458 fold over background in assay [1] and 2.96 fold over background in assay [3]. The binding result in assay [2] was “no binding (tested: 1 ug/ml)”; in the assay with Mouse SIRPA D1 Fc, “no binding (tested: 100 nM)”; in the assay with Human SIRPb D1 Fc, “no binding (tested: 100 nM)”. Also, binding in the assay with Human SIRPA D1 Fc was put at a Kd of 3.81 nM.

B2: SA-27 (antibody, V domains shown)
VH: QLQLQESGPGLVKPSETLSLTCTVSGGSISSSSYYWGWIRQPPGKGLEWIGSIYYSGSTYYNPSLKSRVTISVDTSKNQFSLKLSSVTAADTAVYYCARDSDKVALDLWGRGTLVTVSS
VL: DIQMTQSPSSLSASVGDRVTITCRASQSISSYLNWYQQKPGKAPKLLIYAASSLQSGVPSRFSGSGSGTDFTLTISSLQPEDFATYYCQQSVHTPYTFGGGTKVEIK
notes: IgG
Turning to B2, the “relative MFI” value in assay [1] was determined as 0.619 fold over background; in assay [3], 0.722 fold over background. The binding result in assay [2] is reported as “no binding (tested: 1 ug/ml)”; with Mouse SIRPA D1 Fc, “no binding (tested: 100 nM)”; with Human SIRPb D1 Fc, “no binding (tested: 100 nM)”. Besides, in the assay with Human SIRPA D1 Fc, the affinity, expressed as Kd, was 4.43 nM.

B3: SA-39 (antibody, V domains shown)
VH: QVQLVQSGAEVKKPGASVKVSCKASGYTFTSYYMVWVRQAPGQGLEWMGIINPSGGSTSYAQKFQGRVTMTRDTSTSTVYMELSSLRSEDTAVYYCAREGGYGYRAYPYGMDVWGQGTTVTVSS
VL: DIQMTQSPSSLSASVGDRVTITCQASQDISNSLNWYQQKPGKAPKLLIYDASNLETGVPSRFSGSRSGTDFTFTISSLQPEDIATYYCQQVIILPLTFGGGTKVEIK
notes: IgG
In the case of B3, the “relative MFI” value in assay [1] is 0.571 fold over background; in assay [3] it was 1.47 fold over background. Moreover, the binding result in assay [2] is given as “no binding (tested: 1 ug/ml)”; with Mouse SIRPA D1 Fc, “no binding (tested: 100 nM)”. Further, the Kd came to 22.3 nM in the assay with Human SIRPb D1 Fc and 3.62 nM with Human SIRPA D1 Fc.

B4: SA-36 (antibody, V domains shown)
VH: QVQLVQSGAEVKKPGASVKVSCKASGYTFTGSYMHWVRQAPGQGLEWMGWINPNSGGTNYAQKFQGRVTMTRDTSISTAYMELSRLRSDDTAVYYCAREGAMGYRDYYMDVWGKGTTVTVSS
VL: EIVLTQSPATLSLSPGERATITCQASQDISSYLAWYQQKPGQAPRLLIYDASNRATGIPARFSGSGSGTDFTLTISSLEPEDFAVYYCQQRTHYPWTFGGGTKVEIK
notes: IgG
Take B4: the “relative MFI” value is 0.574 fold over background in assay [1] and 27.9 fold over background in assay [3]. In addition, the binding result in assay [2] is recorded as “no binding (tested: 1 ug/ml)”; in the assay with Mouse SIRPA D1 Fc, “no binding (tested: 100 nM)”; with Human SIRPb D1 Fc it was “no binding (tested: 100 nM)”. This molecule also returned a Kd with Human SIRPA D1 Fc of 8.67 nM.

B5: SA-28 (antibody, V domains shown)
VH: QVQLQESGPGLVKPSQTLSLTCTVSGGSISSGGYYWSWIRQHPGKGLEWIGNIYYSGSTYYNPSLKSRVTISVDTSKNQFSLKLSSVTAADTAVYYCARDSDTSWGGFDYWGQGTLVTVSS
VL: EIVLTQSPGTLSLSPGERATLSCRASQSVRSSYLAWYQQKPGQAPRLLIYGASSRATGIPDRFSGSGSGTDFTLTISRLEPEDFAVYYCQQAGVSPYTFGGGTKVEIK
notes: IgG
Consider B5, for which the figures for the “relative MFI” value in assay [1] and in assay [3] were 0.467 fold over background and 0.775 fold over background, respectively. Besides, the binding result in assay [2] is recorded as “no binding (tested: 1 ug/ml)”; with Mouse SIRPA D1 Fc, “no binding (tested: 100 nM)”; with Human SIRPb D1 Fc, “no binding (tested: 100 nM)”. The same molecule yielded a Kd in the assay with Human SIRPA D1 Fc of 6.67 nM.

B6: SA-37 (antibody, V domains shown)
VH: B1 VH
VL: B5 VL with R30S, Y33F, A92Y, G93D, V94G, S95V, Y97I
notes: IgG
On to B6, for which the “relative MFI” value in assay [1] is 0.464 fold over background; in assay [3] it was 1.27 fold over background. For the same molecule, the values for the binding result (in assay [2]; with Mouse SIRPA D1 Fc; in the assay with Human SIRPb D1 Fc) were “no binding (tested: 1 ug/ml)”, “no binding (tested: 100 nM)” and “no binding (tested: 100 nM)”, respectively. Further, the Kd with Human SIRPA D1 Fc was determined as 10.2 nM.

B7: SA-31 (antibody, V domains shown)
VH: QVQLVQSGAEVKKPGSSVKVSCKASGGTFSSYAISWVRQAPGQGLEWMGSIIPIFGTANYAQKFQGRVTITADESTSTAYMELSSLRSEDTAVYYCARDRGYPRYSYLDLWGRGTLVTVSS
VL: B5 VL with R30S, A92F, G93F, V94S, S95Y, Y97P
notes: IgG
With B7, the “relative MFI” value in assay [1] came out at 0.509 fold over background; in assay [3], 12.4 fold over background. Also, the binding result in assay [2] is “no binding (tested: 1 ug/ml)”; in the assay with Mouse SIRPA D1 Fc, “no binding (tested: 100 nM)”; with Human SIRPb D1 Fc it was “no binding (tested: 100 nM)”. Further, binding with Human SIRPA D1 Fc was characterised by a dissociation constant (Kd) of 6.47 nM.

B8: SA-29 (antibody, V domains shown)
VH: B5 VH
VL: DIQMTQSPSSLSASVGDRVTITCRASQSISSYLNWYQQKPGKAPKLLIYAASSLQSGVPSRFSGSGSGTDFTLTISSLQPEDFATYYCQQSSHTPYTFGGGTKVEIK
notes: IgG
Take B8: the “relative MFI” value is 0.479 fold over background in assay [1] and 0.595 fold over background in assay [3]. Further, the results for the binding result (in assay [2]; in the assay with Mouse SIRPA D1 Fc; with Human SIRPb D1 Fc) were “no binding (tested: 1 ug/ml)”, “no binding (tested: 100 nM)” and “no binding (tested: 100 nM)”, respectively. In the assay with Human SIRPA D1 Fc, this molecule showed a Kd of 4.55 nM.

B9: SA-32 (antibody, V domains shown)
VH: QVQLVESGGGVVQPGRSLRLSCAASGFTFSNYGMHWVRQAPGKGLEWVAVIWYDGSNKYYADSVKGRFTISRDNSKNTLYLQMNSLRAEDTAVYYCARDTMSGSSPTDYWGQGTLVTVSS
VL: EIVMTQSPATLSVSPGERATLSCRASQSVGSNLAWYQQKPGQAPRLLIYGASTRATGIPARFSGSGSGTEFTLTISSLQSEDFAVYYCQQLNVFPWTFGGGTKVEIK
notes: IgG
Take B9: the “relative MFI” value in assay [1] came out at 0.685 fold over background; in assay [3] it was 35.4 fold over background. The binding result in assay [2] is listed as “no binding (tested: 1 ug/ml)”; with Mouse SIRPA D1 Fc, “no binding (tested: 100 nM)”; in the assay with Human SIRPb D1 Fc it was “no binding (tested: 100 nM)”. The molecule also came in with a Kd in the assay with Human SIRPA D1 Fc of 24.4 nM.

B10: SA-26 (antibody, V domains shown)
VH: QVQLQQWGAGLLKPSETLSLTCAVYGGSFSGYYWSWIRQPPGKGLEWIGEIDHSGSTNYNPSLKSRVTISVDTSKNQFSLKLSSVTAADTAVYYCARDRLDGSLGIYGMDVWGQGTTVTVSS
VL: DIQMTQSPSSLSASVGDRVTITCRASQSINSYLNWYQQKPGKAPKLLIYAASSLQSGVPSRFSGSGSGTDFTLTISSLQPEDFATYYCQQSPSDPWTFGGGTKVEIK
notes: IgG
For B10, the “relative MFI” value turned out to be 0.574 fold over background in assay [1] and 1.1 fold over background in assay [3]. For the same molecule, the binding result is “no binding (tested: 1 ug/ml)” in assay [2], “no binding (tested: 100 nM)” with Mouse SIRPA D1 Fc and “no binding (tested: 100 nM)” in the assay with Human SIRPb D1 Fc. In the assay with Human SIRPA D1 Fc, this molecule yielded a Kd of 13.8 nM.

B11: SA-43 (antibody, V domains shown)
VH: QLQLQESGPGLVKPSETLSLTCTVSGGSISSSSYAWGWIRQPPGKGLEWIGSIYYSGSTYYNPSLKSRVTISVDTSKNQFSLKLSSVTAADTAVYYCARELETSRHDIWGQGTTVTVSS
VL: B10 VL with L11V, S28G, N30S, Y32W, N34A, S91A, P92S, S93A, D94F, W96I
notes: IgG
In the case of B11, the “relative MFI” value was determined as 0.479 fold over background in assay [1] and 0.56 fold over background in assay [3]. The binding result is on record as “no binding (tested: 1 ug/ml)” in assay [2], “no binding (tested: 100 nM)” with Mouse SIRPA D1 Fc and “no binding (tested: 100 nM)” with Human SIRPb D1 Fc. This molecule also registered a Kd in the assay with Human SIRPA D1 Fc of 10.5 nM.

B12: SA-34 (antibody, V domains shown)
VH: QVQLVQSGAEVKKPGASVKVSCKASGYTFTNYGISWVRQAPGQGLEWMGWISAYNGNTNYAQKLQGRVTMTTDTSTSTAYMELRSLRSDDTAVYYCARDVYSSYSYWGQGTLVTVSS
VL: DIQLTQSPSTLSASVGDRVTITCRASQSISSWLAWYQQKPGKAPKLLIYDASSLESGVPSRFSGSGSGTEFTLTISSLQPDDFATYYCQQYELLPPTFGGGTKVEIK
notes: IgG
On to B12, for which the “relative MFI” value in assay [1] was 0.613 fold over background; in assay [3], 0.806 fold over background. Besides, the binding result is “no binding (tested: 1 ug/ml)” in assay [2], “no binding (tested: 100 nM)” with Mouse SIRPA D1 Fc and “no binding (tested: 100 nM)” with Human SIRPb D1 Fc. Further, the Kd in the assay with Human SIRPA D1 Fc worked out at 26.8 nM.

B13: SA-35 (antibody, V domains shown)
VH: QVQLVQSGAEVKKPGASVKVSCKASGYTFTSYYMHWVRQAPGQGLEWMGIINPSGGSTSYAQKFQGRVTMTRDTSTSTVYMELSSLRSEDTAVYYCAREAGYDIKGFDYWGQGTLVTVSS
VL: B12 VL with L4M, D50K, E92G, L93S, L94F, P96L
notes: IgG
With B13, the “relative MFI” value is 0.491 fold over background in assay [1] and 48.2 fold over background in assay [3]. In addition, the binding result was “no binding (tested: 1 ug/ml)” in assay [2], “no binding (tested: 100 nM)” with Mouse SIRPA D1 Fc and “no binding (tested: 100 nM)” in the assay with Human SIRPb D1 Fc. For the same molecule, in the assay with Human SIRPA D1 Fc, the Kd was 10.2 nM.
